Measurements reported in patent US20080050810A1.
Changes are numbered by the printed parent chain.

B1: HuCC49 CDR variant H-2 (antibody, V domains shown)
VH: QVQLVQSGAEVVKPGASVKISCKASGYTFTDHAIHWVKQNPGQRLEWIGWINAGNGNTKYSQKFQGKATLTADTSASTAYVELSSLRSEDTAVYFCTRSLNMAYWGQGTLVTVSS
VL: DIVMSQSPDSLAVSLGERVTLNCKSSQSLLYSGNQKNYLAWYQQKPGQSPKLLIYWASARESGVPDRFSGSGSGTDFTLTISSVQAEDVAVYYCQQYYSYPLTFGAGTKLELK
B2: HuCC49 CDR variant L-1 (antibody, V domains shown)
VH: QVQLVQSGAEVVKPGASVKISCKASGYTFTDHAIHWVKQNPGQRLEWIGYFSPGNDDFKYNERFKGKATLTADTSASTAYVELSSLRSEDTAVYFCTRSLNMAYWGQGTLVTVSS
VL: B1 VL with L29V, G33S, Q35S
B3: HuCC49 variant ^97L1,2 (antibody, V domains shown)
VH: B2 VH
VL: B1 VL with L29V, G33S, Q35S, A59T, T103S
B4: HuCC49 SDR variant ^60-62,64H (antibody, V domains shown)
VH: B2 VH with N61S, E62Q, R63K, K65Q
VL: B1 VL
B5: HuCC49 SDR variant ^97L (antibody, V domains shown)
VH: B2 VH
VL: B1 VL with T103S
B6: HuCC49 variant MAb ^97L1,2/^60-62,64H (antibody, V domains shown)
VH: B2 VH with N61S, E62Q, R63K, K65Q
VL: B1 VL with L29V, G33S, Q35S, A59T, T103S
B7: HuCC49 variant MAb ^97L/^60-62,64H (antibody, V domains shown)
VH: B2 VH with N61S, E62Q, R63K, K65Q
VL: B1 VL with T103S
B8: humanized monoclonal antibody HuCC49 (parental HuCC49) (antibody, V domains shown)
VH: B2 VH
VL: B1 VL
B9: HuCC49 CDR variant L-1,2 (antibody, V domains shown)
VH: B2 VH
VL: B1 VL with L29V, G33S, Q35S, A59T
B10: HuCC49 CDR variant L-2 (antibody, V domains shown)
VH: B2 VH
VL: B1 VL with A59T
B11: HuCC49 CDR variant H-3 (antibody, V domains shown)
VH: QVQLVQSGAEVVKPGASVKISCKASGYTFTDHAIHWVKQNPGQRLEWIGYFSPGNDDFKYNERFKGKATLTADTSASTAYVELSSLRSEDTAVYFCTRGGYYGSGSGSNYWGQGTLVTVSS
VL: B1 VL
B12: HuCC49 CDR variant H-1 (antibody, V domains shown)
VH: B2 VH with D31S, H32Y, I34M
VL: B1 VL
B13: HuCC49 CDR variant L-3 (antibody, V domains shown)
VH: B2 VH
VL: B1 VL with Y100T, L102Y, T103S

target: mouse anti-idiotypic MAb AI49-1; assay: competition RIA vs 125I-CC49 on AI49-1-coated wells

Binder	fold more competitor for 50% inhibition than HuCC49 [fold]
B1	4 to 15

target: mouse anti-idiotypic MAb AI49-3; assay: competition RIA vs 125I-CC49 on AI49-3-coated wells

Binder	fold more competitor for 50% inhibition than HuCC49 [fold]
B1	4 to 15

target: TAG-72 positive bovine submaxillary mucin (BSM) (bovine); assay: relative affinity constant from competition RIA on BSM

fold less Ka than HuCC49 [fold]	Ka [M⁻¹]	Binder
2		B2
2 to 3	1.4e+08	B3
	2.2e+08	B4
	3.6e+08	B5
3		B6
	5.48e+08	B7
	3.2e+08	B8
300		B1
2		B9

target: anti-idiotypic antibodies in the serum of one patient who had received ^177Lu-CC49 (Example V, patient not named); assay: size-exclusion HPLC competition vs 125I-HuCC49 + patient serum

Binder	amount of competitor for 50% inhibition of complex formation [Tg]	fold better competition than HuCC49 [fold]
B2	0.7	
B10		2
B1	> 10	
B11	0.4	

target: anti-CC49 variable region antibodies in the serum of patient six; assay: HPLC, serial dilutions of cold competitor vs 125I-HuCC49 + CP serum

Binder	percent competition at 1 Tg [%]	amount of competitor for 25% competition [ng]	amount of competitor for 50% competition [ng]
B6	< 25		
B8		60	250

target: anti-CC49 variable region antibodies in the serum of patient six; assay: HPLC, 125I-HuCC49 + serum + 5 Tg competitor; fewer complexes = competitor bound

Binder	percent of complexes [%]
B2	16.9
B10	3
B12	5.8
B8	1.5
B1	29.7
B11	6.7
B9	15.7
B13	33.5

target: anti-CC49 variable region antibodies in the serum of patient three; assay: as above

Binder	percent of complexes [%]
B2	12.2
B10	3.4
B12	3.9
B8	0
B1	32.5
B11	5.1
B9	24.5
B13	48.2

target: anti-CC49 variable region antibodies in the serum of patient one; assay: as above

Binder	percent of complexes [%]
B2	16
B10	2.7
B12	10.2
B8	0
B1	32.7
B11	7.3
B9	24.6
B13	34.8

target: anti-CC49 variable region antibodies in the serum of patient two; assay: as above

Binder	percent of complexes [%]
B2	10.1
B10	4.4
B12	7
B8	0.5
B1	24.7
B11	8.2
B9	19.4
B13	37.6

target: anti-CC49 variable region antibodies in the serum of patient four; assay: as above

Binder	percent of complexes [%]
B2	9.8
B10	2.7
B12	3.3
B8	2.6
B1	12.7
B11	3.7
B9	12.6
B13	22.4

target: anti-CC49 variable region antibodies in the serum of patient five; assay: as above

Binder	percent of complexes [%]
B2	14.3
B10	2.4
B12	3.5
B8	3
B1	36.6
B11	4.6
B9	20.2
B13	46.7
